Publication PMC101403

Assays:
Assay in all cases: purified protein
Settings in all cases: Mg2+ ([…] MgCl2)
purified protein [1] = substrate: CC(C)(COP(=O)(O)OP(=O)(O)OC[C@H]1O[C@@H](n2cnc3c(N)ncnc32)[C@H](O)[C@@H]1OP(=O)(O)O)[C@@H](O)C(=O)NCCC(=O)NCCSC(=O)CCC(=O)O
purified protein [2] = substrate: CC(O)(CC(=O)O)CC(=O)SCCNC(=O)CCNC(=O)[C@H](O)C(C)(C)COP(=O)(O)OP(=O)(O)OC[C@H]1O[C@@H](n2cnc3c(N)ncnc32)[C@H](O)[C@@H]1OP(=O)(O)O
purified protein [3] = substrate: CC(=O)SCCNC(=O)CCNC(=O)[C@H](O)C(C)(C)COP(=O)(O)OP(=O)(O)OC[C@H]1O[C@@H](n2cnc3c(N)ncnc32)[C@H](O)[C@@H]1OP(=O)(O)O
purified protein [4] = substrate: CC(C)(COP(=O)(O)OP(=O)(O)OC[C@H]1O[C@@H](n2cnc3c(N)ncnc32)[C@H](O)[C@@H]1OP(=O)(O)O)[C@@H](O)C(=O)NCCC(=O)NCCS

B1: Y87G2A.14 Nudix hydrolase (coenzyme A diphosphatase) (Caenorhabditis elegans) (protein)
chain: MKCVVSRADDLKRMLDLSDVPTKSQGEQDAGVLILLHDDGSEKLKVLLCVRSRQLRRHPGEVCFPGGMMDDEDGQNVRRTAIREAYEEVGVNENDDYLVLGNLPAFRARFGVLIHPTVALLRRPPTFVLSIGEVESIFWIPLSQFLEDTHHSTFLIDEFYMVHVFQFDEYPTTYGVTALMCIVVAIGLLGKLPNFNLMGNLTISDMLDKHLDSIEIIRHVYEFASRKFEPKSKI
For B1, the Km (purified protein [1]) was 0.24 mM, the kcat (purified protein [1]) was 12.7 s⁻¹ and the kcat/Km (purified protein [1]) was 53000 M⁻¹ s⁻¹. It also gave a Km (purified protein [2]) of 0.20 mM, a kcat (purified protein [2]) of 10.5 s⁻¹ and a kcat/Km (purified protein [2]) of 54000 M⁻¹ s⁻¹. It also gave a Km (purified protein [3]) of 0.23 mM, a kcat (purified protein [3]) of 11.8 s⁻¹ and a kcat/Km (purified protein [3]) of 51000 M⁻¹ s⁻¹. The Km (purified protein [4]) was 0.22 mM, the kcat (purified protein [4]) was 13.8 s⁻¹ and the kcat/Km (purified protein [4]) was 64000 M⁻¹ s⁻¹.
